The target of this data set is Mre11 (PfuMR complex);Rad50 (PfuMR complex) (Pyrococcus furiosus;Pyrococcus furiosus, UniProt Q8U1N9;P58301 1-426;1-882, |). Briefly: EMSA. (A gel shift assay detects complexes by their altered migration in electrophoresis.)
Mre11 (PfuMR complex);Rad50 (PfuMR complex), sequence (P58301 whole entry, one chain of several): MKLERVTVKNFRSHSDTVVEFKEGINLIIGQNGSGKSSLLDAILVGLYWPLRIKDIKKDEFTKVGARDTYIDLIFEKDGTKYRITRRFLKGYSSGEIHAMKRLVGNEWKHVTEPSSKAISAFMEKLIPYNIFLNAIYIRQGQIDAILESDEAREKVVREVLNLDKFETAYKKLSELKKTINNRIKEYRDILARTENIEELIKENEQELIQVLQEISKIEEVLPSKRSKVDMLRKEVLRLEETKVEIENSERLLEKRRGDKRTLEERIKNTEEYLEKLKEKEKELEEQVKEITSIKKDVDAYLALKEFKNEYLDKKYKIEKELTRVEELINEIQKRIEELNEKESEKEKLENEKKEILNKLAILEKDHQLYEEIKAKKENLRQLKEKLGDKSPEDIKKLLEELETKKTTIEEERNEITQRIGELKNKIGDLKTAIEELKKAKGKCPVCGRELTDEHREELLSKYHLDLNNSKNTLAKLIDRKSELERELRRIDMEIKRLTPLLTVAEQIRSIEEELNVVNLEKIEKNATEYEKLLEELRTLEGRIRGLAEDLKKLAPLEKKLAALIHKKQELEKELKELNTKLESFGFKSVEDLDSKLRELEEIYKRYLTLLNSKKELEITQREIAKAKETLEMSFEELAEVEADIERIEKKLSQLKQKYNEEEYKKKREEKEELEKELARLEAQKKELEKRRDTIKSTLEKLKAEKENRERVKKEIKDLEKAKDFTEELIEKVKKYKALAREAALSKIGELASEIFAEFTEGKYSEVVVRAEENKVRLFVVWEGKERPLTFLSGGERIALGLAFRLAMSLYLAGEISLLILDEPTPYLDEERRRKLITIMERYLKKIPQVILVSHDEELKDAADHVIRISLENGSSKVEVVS

B1: S50/50s (dsDNA)
DNA 1: CTGCAGGGTTTTTGTTCCAGTCTGTAGCACTGTGTAAGACAGGCCAGATG
DNA 2: CATCTGGCCTGTCTTACACAGTGCTACAGACTGGAACAAAAACCCTGCAG
modifications: phosphorothioate bonds at the last 5 linkages of the 3' end of strand 2 (CCCsTsGsCsAsG)
Turning to B1, the binding result is recorded as “binds”.

The values above are taken from article PMC6009593.
